Measurements reported in article PMC3066073.
Where two headings read alike, the source gives them in different places.

B1: PKC-theta Wt probe I (dsDNA)
DNA 1: CAAATGCCTGGGGTAGGTCA
DNA 2: TGACCTACCCCAGGCATTTG
B2: PKC-theta Wt probe III (dsDNA)
DNA 1: ATGAGCCACCGCACCTGGCC
DNA 2: GGCCAGGTGCGGTGGCTCAT

Legend:
RUNX1 (recombinant) [1] = target: T1, RUNX1 (recombinant) (UniProt Q01196 1-453); experiment: EMSA, supershift
RUNX1 (recombinant) [2] = target: T1, RUNX1 (recombinant); experiment: EMSA, supershift; remark: listed apart in the source

T1 sequence (Q01196 whole entry): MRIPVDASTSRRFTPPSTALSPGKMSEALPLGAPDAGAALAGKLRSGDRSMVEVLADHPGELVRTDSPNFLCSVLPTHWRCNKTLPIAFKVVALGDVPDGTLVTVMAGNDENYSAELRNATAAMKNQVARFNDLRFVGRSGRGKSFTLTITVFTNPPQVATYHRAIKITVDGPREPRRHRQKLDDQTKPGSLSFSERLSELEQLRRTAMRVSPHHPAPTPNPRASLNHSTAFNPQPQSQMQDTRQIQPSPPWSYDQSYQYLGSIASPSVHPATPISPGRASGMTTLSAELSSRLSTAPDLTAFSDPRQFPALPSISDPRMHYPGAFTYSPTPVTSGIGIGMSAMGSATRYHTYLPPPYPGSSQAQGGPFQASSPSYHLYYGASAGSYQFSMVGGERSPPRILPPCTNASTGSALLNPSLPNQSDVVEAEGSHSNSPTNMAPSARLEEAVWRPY

| Binder | binding result (RUNX1 (recombinant) [1]) | binding result (RUNX1 (recombinant) [2]) |
| --- | --- | --- |
| B1 | binds |  |
| B2 |  | binds |
